The values below come from patent publication US20190100563A1 (UNIVERSITY COURT OF THE UNIVERSITY OF EDINBURGH, published 2019).

First the molecules themselves.
B1: PspC (62-140) (other)
chain: KQVVDEYIEKMLREIQLDRRKHTQNVALNIKLSAIKTKYLRELNVLEEKSKDELPSEIKAKLDAAFEKFKKDTLKPGEK
B2: PspC (37-130) (other)
chain: ATENEGSTQAATSSNMAKTEHRKAAKQVVDEYIEKMLREIQLDRRKHTQNVALNIKLSAIKTKYLRELNVLEEKSKDELPSEIKAKLDAAFEKF
B3: SUMO (fusion partner alone) (other, UniProt Q12306 3-98, looked up)
chain: DSEVNQEAKPEVKPEVKPETHINLKVSDGSSEIFFKIKKTTPLRRLMEAFAKRQGKEMDSLRFLYDGIRIQADQTPEDLDMEDNDIIEAHREQIGG
B4: Human complement factor H purified from plasma (other)
chain: EDCNELPPRRNTEILTGSWSDQTYPEGTQAIYKCRPGYRSLGNVIMVCRKGEWVALNPLRKCQKRPCGHPGDTPFGTFTLTGGNVFEYGVKAVYTCNEGYQLLGEINYRECDTDGWTNDIPICEVVKCLPVTAPENGKIVSSAMEPDREYHFGQAVRFVCNSGYKIEGDEEMHCSDDGFWSKEKPKCVEISCKSPDVINGSPISQKIIYKENERFQYKCNMGYEYSERGDAVCTESGWRPLPSCEEKSCDNPYIPNGDYSPLRIKHRTGDEITYQCRNGFYPATRGNTAKCTSTGWIPAPRCTLKPCDYPDIKHGGLYHENMRRPYFPVAVGKYYSYYCDEHFETPSGSYWDHIHCTQDGWSPAVPCLRKCYFPYLENGYNQNYGRKFVQGKSIDVACHPGYALPKAQTTVTCMENGWSPTPRCIRVKTCSKSSIDIENGFISESQYTYALKEKAKYQCKLGYVTADGETSGSITCGKDGWSAQPTCIKSCDIPVFMNARTKNDFTWFKLNDTLDYECHDGYESNTGSTTGSIVCGYNGWSDLPICYERECELPKIDVHLVPDRKKDQYKVGEVLKFSCKPGFTIVGPNSVQCYHFGLSPDLPICKEQVQSCGPPPELLNGNVKEKTKEEYGHSEVVEYYCNPRFLMKGPNKIQCVDGEWTTLPVCIVEESTCGDIPELEHGWAQLSSPPYYYGDSVEFNCSESFTMIGHRSITCIHGVWTQLPQCVAIDKLKKCKSSNLIILEEHLKNKKEFDHNSNIRYRCRGKEGWIHTVCINGRWDPEVNCSMAQIQLCPPPPQIPNSHNMTTTLNYRDGEKVSVLCQENYLIQEGEEITCKDGRWQSIPLCVEKIPCSQPPQIEHGTINSSRSSQESYAHGTKLSYTCEGGFRISEENETTCYMGKWSSPPQCEGLPCKSPPEISHGVVAHMSDSYQYGEEVTYKCFEGFGIDGPAIAKCLGEKWSHPPSCIKTDCLSLPSFENAIPMGEKKDVYKAGEQVTYTCATYYKMDGASNVTCINSRWTGRPTCRDTSCVNPPTVQNAYIVSRQMSKYPSGERVRYQCRSPYEMFGDEEVMCLNGNWTEPPQCKDSTGKCGPPPPIDNGDITSFPLSVYAPASSVEYQCQNLYQLEGNKRITCRNGQWSEPPKCLHPCVISREIMENYNIALRWTAKQKLYSRTGESVEFVCKRGYRLSSRSHTLRTTCWDGKLEYPTCAKR
notes: also called Plasma CFH; plasma-purified CFH
B5: Plasma CFH:PspCN complex (other)
chain 1: B4 chain
chain 2: ATENEGSTQAATSSNMAKTEHRKAAKQVVDEYIEKMLREIQLDRRKHTQNVALNIKLSAIKTKYLRELNVLEEKSKDELPSEIKAKLDAAFEKFKKDTLKPGEK
notes: also called PspCN:CFH
B6: Recombinant human CFH, wild-type sequence, from Pichia pastoris (other)
chain: B4 chain
notes: also called rCFH; CFH (wt)
B7: rCFH:PspCN complex (other)
chain 1: B4 chain
chain 2: B5 chain 2
notes: also called CFH (wt):PspCN
B8: rCFH-D1119G:PspCN complex (other)
chain 1: B4 chain with D1101G
chain 2: B5 chain 2
notes: also called PspCN:CFH (D1119G)
B9: Recombinant human CFH (D1119G) from Pichia pastoris (other)
chain: B4 chain with D1101G
notes: also called rCFH-D1119G; rCFH (D1119G)
B10: sPspCNR1 (N-terminally hexaHis-SUMO-tagged PspC residues 37-292, strain D39, including the R1 domain) (other)
chain: ATENEGSTQAATSSNMAKTEHRKAAKQVVDEYIEKMLREIQLDRRKHTQNVALNIKLSAIKTKYLRELNVLEEKSKDELPSEIKAKLDAAFEKFKKDTLKPGEKVAEAKKKVEEAKKKAEDQKEEDRRNYPTNTYKTLELEIAEFDVKVKEAELELVKEEAKESRNEGTIKQAKEKVESKKAEATRLENIKTDRKKAEEEAKRKADGKLKEANVATSDQGKPKGRAKRGVPGELATPDKKENDAKSSDSSVGEETL
notes: not shown: N-terminal hexaHis-SUMO tag from the pE-SUMOpro Kan vector
B11: PspC (37-120) (other)
chain: ATENEGSTQAATSSNMAKTEHRKAAKQVVDEYIEKMLREIQLDRRKHTQNVALNIKLSAIKTKYLRELNVLEEKSKDELPSEIK
B12: His-SUMO-Cys-PspCN (other)
chain: CGSGSGSGSGGATENEGSTQAATSSNMAKTEHRKAAKQVVDEYIEKMLREIQLDRRKHTQNVALNIKLSAIKTKYLRELNVLEEKSKDELPSEIKAKLDAAFEKFKKDTLKPGEK
notes: also called Cys-PspCN (as SPR ligand); not shown: N-terminal His-SUMO tag
B13: PspC (52-140) (other)
chain: MAKTEHRKAAKQVVDEYIEKMLREIQLDRRKHTQNVALNIKLSAIKTKYLRELNVLEEKSKDELPSEIKAKLDAAFEKFKKDTLKPGEK
B14: PspC (37-110) (other)
chain: ATENEGSTQAATSSNMAKTEHRKAAKQVVDEYIEKMLREIQLDRRKHTQNVALNIKLSAIKTKYLRELNVLEEK
B15: PspCN (TIGR4 37-179), fragment of PspC (CbpA) of S. pneumoniae strain TIGR4 (other)
chain: ATENEGATQVPTSSNRANESQAEQGEQPKKLDSERDKARKEVEEYVKKIVGESYAKSTKKRHTITVALVNELNNIKNEYLNKIVESTSESQLQILMMESRSKVDEAVSKFEKDSSSSSSSDSSTKPEASDTAKPNKPTEPGEK
notes: not shown: N-terminal hexaHis-SUMO tag used for capture on the NTA chip

Residue numbers refer to the chain shown, from its start. Names and notes keep the numbering of the source.

Test [1] has as its target Human C3d (plasma-purified) (human) (UniProt P01024). Description: SPR (Biacore), coupled C3d. Background: In SPR one partner is held on a chip, and binding of the other changes the refractive index at the surface.
Test [2] concerns the target Human C3b (plasma-purified) (human) (UniProt P01024). Description: SPR (Biacore), coupled C3b.
Test [3] deals with Human complement factor H purified from plasma (human) (UniProt P08603). Description: SPR.
Test [4] has the same target. Description: SPR, immobilised TIGR4 fragment, FH as analyte.
The target is the same in test [5]. Description: SPR, TIGR4 fragment on NTA chip, CFH as analyte.
Test [6] concerns the target B4. As to the kind of experiment: not stated there (SPR in the examples).
For test [7], the target named is B4. Description: SPR, same assay as for PspCN (37-140).
Test [8] has as its target B4. As to the kind of experiment: SPR.
The target in test [9] is T1, Human C3b (plasma-purified) (human, UniProt P01024 23-667; P01024 749-1663). Description: SPR (Biacore), coupled C3b, TIGR4 experiment.
The target of test [10] is T1, Human C3b (plasma-purified). As to the kind of experiment: SPR, amine-coupled C3b on C1 chip, equilibrium 1:1 fit.
Protocol: The sensor chip was regenerated by 2×30 s injections of 1 M NaCl. Data were analysed using the Biacore evaluation software and equilibrium affinity parameters were calculated using a 1:1 binding affinity model.
Commercially sources plasma-purified human C3b, C3c and C3d were immobilized using standard amine coupling to different channels of the same C1 SPR chip (Biacore).
For test [11] the target is unchanged. Description: SPR, amine-coupled C3b on C1 chip.
Test [12] deals with T2, Human C3d (plasma-purified) (human, UniProt P01024 1002-1303).
T2 construct: domain: TED; also called TED of C3b
As to the kind of experiment: SPR, immobilised C3d.

The target of test [13] is T1, Human C3b (plasma-purified). As to the kind of experiment: SPR, immobilised C3b.
The target of test [14] is B4. Description: SPR, His-SUMO-Cys-PspCN as ligand, plasma-purified CFH as analyte, kinetic analysis.
The target of test [15] is B4. As to the kind of experiment: SPR, immobilised PspC fragment, CFH flowed over.
For test [16], the target named is B4. As to the kind of experiment: SPR, TIGR4 fragment on NTA chip, CFH as analyte.

T1 sequence (P01024 23-667 limits assumed, chain 1 of 2): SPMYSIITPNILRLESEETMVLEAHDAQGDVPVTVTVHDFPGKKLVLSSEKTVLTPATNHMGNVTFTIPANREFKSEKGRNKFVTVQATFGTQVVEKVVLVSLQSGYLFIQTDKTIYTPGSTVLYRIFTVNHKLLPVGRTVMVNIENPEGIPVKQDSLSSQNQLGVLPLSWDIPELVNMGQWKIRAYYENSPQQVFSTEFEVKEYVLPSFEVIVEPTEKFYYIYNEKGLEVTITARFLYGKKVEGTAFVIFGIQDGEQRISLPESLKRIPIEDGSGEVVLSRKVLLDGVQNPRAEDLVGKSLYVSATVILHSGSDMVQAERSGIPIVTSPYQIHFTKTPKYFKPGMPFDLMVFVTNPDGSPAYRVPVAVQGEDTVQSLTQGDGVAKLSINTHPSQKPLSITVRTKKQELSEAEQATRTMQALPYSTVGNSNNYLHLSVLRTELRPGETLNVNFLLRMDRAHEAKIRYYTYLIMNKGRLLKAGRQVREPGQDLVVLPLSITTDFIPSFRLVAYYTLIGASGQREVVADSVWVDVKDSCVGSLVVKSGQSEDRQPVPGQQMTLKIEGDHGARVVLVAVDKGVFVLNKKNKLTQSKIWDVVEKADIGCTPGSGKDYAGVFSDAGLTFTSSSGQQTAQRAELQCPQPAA
T1 sequence (P01024 749-1663 limits assumed, chain 2 of 2): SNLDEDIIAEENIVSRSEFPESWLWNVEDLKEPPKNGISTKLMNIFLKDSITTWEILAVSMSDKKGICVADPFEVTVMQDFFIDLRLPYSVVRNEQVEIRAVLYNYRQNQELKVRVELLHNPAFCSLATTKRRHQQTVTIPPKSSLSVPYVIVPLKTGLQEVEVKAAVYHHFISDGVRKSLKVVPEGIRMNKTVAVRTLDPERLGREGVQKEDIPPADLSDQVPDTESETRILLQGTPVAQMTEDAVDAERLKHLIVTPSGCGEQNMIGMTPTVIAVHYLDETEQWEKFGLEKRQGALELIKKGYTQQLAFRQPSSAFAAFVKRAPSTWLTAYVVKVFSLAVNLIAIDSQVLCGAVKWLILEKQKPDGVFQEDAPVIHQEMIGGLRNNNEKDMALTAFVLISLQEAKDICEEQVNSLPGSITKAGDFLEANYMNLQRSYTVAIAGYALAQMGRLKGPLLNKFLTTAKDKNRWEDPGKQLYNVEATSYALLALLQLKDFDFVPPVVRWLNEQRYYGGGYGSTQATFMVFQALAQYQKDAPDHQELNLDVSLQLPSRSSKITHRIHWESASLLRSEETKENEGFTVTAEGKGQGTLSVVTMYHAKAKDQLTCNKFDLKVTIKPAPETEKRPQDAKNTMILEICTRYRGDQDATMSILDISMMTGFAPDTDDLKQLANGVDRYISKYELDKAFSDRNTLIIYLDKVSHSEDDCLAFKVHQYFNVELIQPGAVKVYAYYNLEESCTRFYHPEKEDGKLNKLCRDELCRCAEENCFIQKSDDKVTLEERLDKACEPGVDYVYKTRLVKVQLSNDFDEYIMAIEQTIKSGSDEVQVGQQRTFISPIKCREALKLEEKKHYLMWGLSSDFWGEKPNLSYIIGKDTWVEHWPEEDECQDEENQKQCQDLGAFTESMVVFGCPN
Chain of Human C3b (plasma-purified) (human) (P01024 23-667 limits assumed, chain 1 of 2): as the sequence (P01024 23-667 limits assumed, chain 1 of 2) above
Chain of Human C3b (plasma-purified) (human) (P01024 749-1663 limits assumed, chain 2 of 2): as the sequence (P01024 749-1663 limits assumed, chain 2 of 2) above
T2 sequence (P01024 1002-1303 limits assumed): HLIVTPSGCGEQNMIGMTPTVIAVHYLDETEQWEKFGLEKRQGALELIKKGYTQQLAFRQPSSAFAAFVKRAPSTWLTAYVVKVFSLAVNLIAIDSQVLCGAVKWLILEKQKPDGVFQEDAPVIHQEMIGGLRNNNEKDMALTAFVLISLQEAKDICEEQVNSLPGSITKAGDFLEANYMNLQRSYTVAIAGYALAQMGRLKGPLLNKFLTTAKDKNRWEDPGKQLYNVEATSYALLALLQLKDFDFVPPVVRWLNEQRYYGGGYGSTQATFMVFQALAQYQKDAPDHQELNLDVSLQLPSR
Chain of Human C3d (plasma-purified) (human) (P01024 1002-1303 limits assumed): as above

In general, Kd refers to the equilibrium constant for the complex coming apart. For CFH:TIGR4 (37-179) complex, the results for the Kd in test [1] and in test [2] were 1200 nM and 280 nM, respectively.

Regarding “PspCN (TIGR4 68-148), fragment of PspC (CbpA) of S. pneumoniae strain TIGR4”, the Kd is 0.001 pM in [3], less than 0.018 nM in test [4] and less than 0.018 nM in test [5]. B1 yielded a Kd in test [6] of roughly 0.05 pM. Regarding B2, the “decrease in binding affinity against PspCN (37-140)” value (from here on “decrease in binding affinity”) in test [7] is ≥ 3 orders of magnitude. Regarding B3, the binding result in test [8] is “no binding”. As for B4, the dissociation constant Kd in test [9] worked out at 550 nM; in test [10], 490 nM. With B5, the “fold better binding than CFH alone” value in test [11] worked out at 3 fold. The “fold better binding than intact CFH” value in [12] was greater than 50 fold. Besides, the “fold difference in affinity against CFH” value in [13] worked out at 4 fold. This molecule came in with a Kd in test [10] of 160 nM.

With B6, binding in test [10] was characterised by a dissociation constant (Kd) of 580 nM. As for B7, the Kd in test [10] was determined as 160 nM. This Kd is about 3.6-fold lower than that of the molecule before.

Turning to B8, the Kd in [10] was 320 nM. Against the preceding molecule, the Kd is about 2-fold higher. On the same count and under the same terms, then B9, with 540 nM. In the case of B10, the binding result in test [8] is “binds”.

For B11, in test [7], the “decrease in binding affinity” value is ≥ 3 orders of magnitude. B12 showed a dissociation constant (Kd) in test [14] of roughly 0.0001 nM. Regarding B13, the binding result in [15] was “binds”.

B14: the “decrease in binding affinity” value in test [7] is ≥ 3 orders of magnitude.

B15 yielded a Kd in test [16] of less than 0.01 nM.
